Test results: doi:10.1101/797027

Target: hRpn10^322–366 peptide with Y326 phosphorylated (human) (UniProt P55036)
Experiment: ITC

Chain of E6AP AZUL domain, E6AP[24–87] (Q05086 24-87): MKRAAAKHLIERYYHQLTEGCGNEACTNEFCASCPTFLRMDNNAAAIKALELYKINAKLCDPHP

“E6AP AZUL domain, E6AP[24–87] (from UniProt Q05086 24-87) (domain or fragment)” gave a fold reduction of affinity against unphosphorylated hRpn10^322–366 of 10 fold.
